One experiment has as its target T1, cyclin A/CDK2 (Homo sapiens, UniProt P24941).
T1 construct: made in house; host or cells: Sf9 insect cells (Spodoptera frugiperda), baculovirus co-infection
Put plainly: In vitro kinase assay of cyclin A/CDK2 on biotinylated p27KIP1 substrate peptides (Michaelis-Menten kinetics). Type of experiment: biochemical. The following applies: for Relative rate (maximal relative rate of phosphoryl transfer) / Km: 50 μM ATP and 1 μCi 32P-γ-ATP, 10 min, 30°C, 50 mM Tris-HCl pH 7.5, 10 mM MgCl2, SAM2 membrane, scintillation counting, Michaelis-Menten fit (GraphPad Prism), Fig. 5: mean values ± SD of 5 experiments performed in duplicates; for Km: peptide substrate. Here is the method:
Fig. 5 Analysis of cyclin A/CDK2 kinase activity on p27^KIP1 substrate peptides. Cyclin A/CDK2 Kinase purified from Sf9 cells was incubated with increasing concentrations of p27^KIP1 wild type and the R194A mutant peptide as indicated. Phosphorylation of the peptides was monitored after immobilisation on SAM2 membrane by scintillation counting and analysis by GraphPad Prism software. Shown are mean values ± SD of 5 experiments performed in duplicates
Human cyclin A/CDK2 complexes were expressed in SF9 insect cells (Spodoptera frugiperda) upon infection with recombinant baculo viruses encoding either cyclin A or CDK2. The complex was purified using the GST tag of cyclin A [49]. In vitro kinase assays of cyclin A/CDK2 were performed in kinase buffer (50 mM Tris-HCl, pH 7.5, 10 mM MgCl2, 1 mM EGTA, 1 mM DTT, 40 mM α-glycero-phosphate, 20 mM p-nitrophenylphosphate, 0.1 mM sodium vanadate, 0.01% BriJ 35) containing 50 μM ATP and 1 μCi ^32P-γ-ATP for 10 min at 30°C in the presence of increasing amount of biotinylated p27^KIP1 wild type or R194A (an arginine to alanine substitution at position 194) peptides as substrates. The assays were terminated by adding 12.5 μl 7.5 M guanidine hydrochloride. The peptides were immobilized on SAM2 Biotin Capture Membranes (Promega), extensively washed as described in the manufacturer’s protocol, and then monitored for radioactivity in a liquid scintillation counter to calculate the specific kinase activity. Kinetic parameters were determined with GraphPad Prism software built-in “Enzyme kinetic Michaelis-Menten”. The sequence of the p27^KIP1 wild type peptide corresponds to amino acids 180 to 194. The peptides were synthesized with a biotin-PEG-20-linker and purified by HPLC at the Peptide Specialty Laboratories, Heidelberg (Germany).

The target in experiment [1] is Human cyclin A/CDK2 complex (human) (UniProt P20248).

For the substance “N180AGSVEQTPKKPGLA [Peptide R194A, p27KIP1 peptide with an arginine to alanine substitution at position 194]”, on cyclin A/CDK2, the “Relative rate (maximal relative rate of phosphoryl transfer)” value was 1.11 pmol/min and the Michaelis constant (Km) is 81.4 µM.

For “N180AGSVEQTPKKPGLR [wt, p27KIP1 wild type peptide corresponding to amino acids 180 to 194]”, at cyclin A/CDK2, the “Relative rate (maximal relative rate of phosphoryl transfer)” value worked out at 2.21 pmol/min and the Km turned out to be 93.6 µM. Further, on cyclin A/CDK2 (wt versus R194A, in words), the “turnover rate of the wt peptide relative to the R194A mutant peptide” value is reported as “twice as high”.

Take “p27^KIP1 R194A peptide (amino acids 180 to 194)”: in experiment [1], the Km of peptide phosphorylation by cyclin A/CDK2, in vitro kinase assay (32P-γ-ATP, 50 μM ATP, 10 min, 30°C) was 81.4 µM; the Relative rate/Km of peptide phosphorylation by cyclin A/CDK2, in vitro kinase assay was determined as 0.0135; the maximal relative rate of phosphoryl transfer by cyclin A/CDK2, in vitro kinase assay came to 1.11 pmol/min.

For the substance “p27^KIP1 wild-type peptide (amino acids 180 to 194)”, in experiment [1], the Km of peptide phosphorylation by cyclin A/CDK2, in vitro kinase assay (32P-γ-ATP, 50 μM ATP, 10 min, 30°C) came to 93.6 µM; the Relative rate/Km of peptide phosphorylation by cyclin A/CDK2, in vitro kinase assay worked out at 0.0195; the maximal relative rate of phosphoryl transfer by cyclin A/CDK2, in vitro kinase assay was 2.21 pmol/min.

As a reminder, the Km is the concentration of substrate that gives half-maximal velocity.

Values taken from publication PMC5217639, “Structural prediction of the interaction of the tumor suppressor p27^KIP1 with cyclin A/CDK2 identifies a novel catalytically relevant determinant” (BMC Bioinformatics, 2017).
